B1: TPR t1 (parent)
chain: GACCAAUCUGCCCUCAGAGCUCGAGAACAUCUUCGGAUGCAGAGGAGGCAGGCUUCGGUGGCGCGAUAGCGCCAACGUCCUCAACCUCCAAUGCAUCCCACCACAUGAUGAUGCCUGAAGAGCCUUGGUUUUUUG

Variants of: B1
Test: polymerase ribozyme fitness, log enrichment relative to wild type (log ratio); higher = more active; in vitro selection for triplet polymerase activity
Procedure, shortened: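 Streptavidin-bead capture of gel-excised extended constructs, followed by RT-PCR, closed a single triplicate in vitro selection round. That round began by annealing PCR-built, transcribed mutant libraries of each subunit of a heterodimeric triplet polymerase ribozyme with a biotinylated primer, the partner subunit and triplets, then incubating them frozen at −7 °C. After Illumina sequencing of inputs and outputs, genotypes needed ≥10 input reads and ≥1 read per output. Fitness is the base-2 logarithm of genotype enrichment over wild-type enrichment, using inverse-variance-weighted replicate averages.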

| Variant | polymerase ribozyme fitness (log ratio) |
| --- | --- |
| G93U A95U C97G G120U C124U | -6.74 |
| G93C U106A | -0.61 |
| C97A U112C | -2.11 |
| C97U U125G | -1.25 |
| C97U U125A | -1.31 |
| C98U U112A | -1.61 |
| C94A U112C U126G | -0.847 |
| G93A C98U | -1.72 |
| C99A U132C | -4.94 |
| G93U C101A G113A C115G | -4.73 |
| C97U C98A | -4.41 |
| A100U G113C | -2.85 |
| C94U C114U | -2.58 |
| C97G G127U | -3.75 |
| A95U G113U U125A | -3.81 |
| C98A A111U | -5.78 |
| A100U U125G | -0.739 |
| U96C U106A | -1.43 |
| U92G G122U C124U U126C | -5.41 |
| G93A U130G | -1.45 |
| U96A U131G | -1.96 |

| Variant | polymerase ribozyme fitness (log ratio) |
| --- | --- |
| U96G C98U | -3.02 |
| C101G C124G | -0.536 |
| A95C A108G G110U | -4 |
| G93U U96G | -1.89 |
| A95U A119U U125A G127U | -2.7 |
| C97U G110A | -1.67 |
| U96A C115A | -3.09 |
| A100U A111G | 0.222 |
| C94U G107A | -4.87 |
| G93U G110C | -4.54 |
| G93A C102A | -1.81 |
| G93A C102U | -2.73 |
| C101G C102A U130C | -4.99 |
| A95G C123G | 1.72 |
| C97U U116G | -2.81 |
| C97U G113A | -1.5 |
| C94A G128A U129G | -3.11 |
| U96A U112C G127C | -0.056 |
| C99U U132C | -3.53 |
| C101A U106C G110C U134G | -4.82 |
| C94U C101A | -1.52 |

| Variant | polymerase ribozyme fitness (log ratio) |
| --- | --- |
| G93A C123G | 0.42 |
| A95C G120U | -0.765 |
| A100U C101U C104A | -2.87 |
| C97U U129A | -2.18 |
| G93C U112A | 0.679 |
| C97G | -4.4 |
| C97U | -0.53 |
| C97A | -4.67 |
| C98U U116A A119G | -0.385 |
| U96G C102A G127C | -3.73 |
| U96C U126C | -1.7 |
| C99G G120A | -7.03 |
| C94A G127U U134G G135U | -2.31 |
| U96G G113U | -3.21 |
| C94A U129C | -0.753 |
| C98A G120A | -3.18 |
| C101G C115U | -3.55 |
| C101A U132A | -0.824 |
| A100C U106A U132C | -0.19 |
| C94U C115A | -0.137 |
| A95G C98U G113A A118G | -3.57 |

| Variant | polymerase ribozyme fitness (log ratio) |
| --- | --- |
| C99A C102A U109A G127C | -6.24 |
| G93A C101U | -1.15 |
| C98A C104U | -4.88 |
| C98G G120C | -3.19 |
| G93U C98U G120C | -3.66 |
| A95C C101U U106A | -0.358 |
| C101G C114A | -3.3 |
| C99U C115G | -4.9 |
| C98A A100G C114A | -6.06 |
| C97U C123G U126A | 0.329 |
| C94U G120C | 0.688 |
| A95C U106A C124U | 1.29 |
| C98U U125G | -2.35 |
| C99U U133A | -2.99 |
| C101A G107U U112G | -6.92 |
| C97G A119G | -2.68 |
| C97U U106G | -2.7 |
| C99A G127C | -5.7 |
| U96A C123G | 0.707 |
| U92G G93C | -3.76 |
| G93C A121U | 1.21 |
